Results on seven substances are retold here after patent US20080216185.

For the data set, the system named is phiC31 integrase (Streptomyces phage phiC31?). As to the kind of experiment: cell_activity. Particulars: for activity: integration of attB plasmid.

“phiC31 attB (pB2H1-DEST derived plasmids)” showed an activity (fold colonies over random integration) (114 vs 80 colonies with/without integrase, BG01v hESC) of 1.4.
Take pseudo attP 2q35: for the setting “BG01v”, the activity is 2 clones.
The same measure, in the same setting: with pseudo attP 6p11.2 (PRIM2A intron 5) the figure was 5 clones.
Take pseudo attP 9q31.2: for the setting “BG01v and SA002”, the activity amounted to 3 clones.
In the case of pseudo attP 13q32.3 (CLYBL intron 2), the activity (of 51 integrase-mediated clones, BG01v and SA002) stood at 17 clones.
Under “BG01v”, “pseudo attP 17q23.3 (TLK2/MRC2 intergenic)” displayed an activity of 4 clones.
Still for that read-out and setting: with pseudo attP 21q21.1 the figure was 2 clones.
